Data on 7 substances can be found in patent US20170035898A1, “CONJUGATES OF AN IL-15 MOIETY AND A POLYMER” (Nektar Therapeutics, priority 2014, published 2017).

Test [1] has as its target IL-15-Rα-Fc. The experiment in a line: SPR (Biacore), IL-15Rα-Fc captured by anti-human Fc antibody, test article injected. For orientation: Surface plasmon resonance follows binding to a sensor surface in real time, without labels.
Test [2] has as its target IL-15-Rα-Fc. Kind of test: SPR (Biacore), IL-15Rα-Fc captured by anti-human Fc antibody, Kd from kd/ka.
The test system of test [3] is STAT5 phosphorylation in CTLL-2 cells. Kind of test: Measurement of IL-15 activity of rIL-15 based on STAT5 phosphorylation in CTLL-2 cells (Example 1). The class given is cell-based. The source says:
For any given peptide, protein moiety or conjugate, it is possible to determine whether that peptide, protein moiety or conjugate has IL-15 activity. Various methods for determining in vitro IL-15 activity are described in the art. An exemplary approach is based on a pSTAT assay. Briefly, if an IL-15-dependent CTLL-2 cell is exposed to a test article having IL-15 activity, initiation of a signaling cascade results that includes the phosphorylation of STAT5 at tyrosine residue 694 (Tyr694) that can be quantitatively measured.
One day prior to assay, CTLL-2 cells were split into fresh growth medium (RPMI 1640+10% FBS+10% T-STIM+2 mM L-glut+1 mM Na-pyruvate). On the day of assay, cells were pre-incubated in assay medium (RPMI 1640+1% FBS+2 mM L-glut+1 mM Na-pyruvate) for at least 4 hours and then placed in a 96-well plate at 50,000 cells/well in the assay medium.
Dilutions of the test article were prepared in an appropriate buffer immediately prior to assay and each dilution of test article was incubated in a separate well of the CTLL-2 cells. The phosphorylation of STAT5 was then determined using the MSD Phospho (Tyr694)/Total STATa,b Whole Cell Lysate Kit (catalog #K15163D, […], LLC, Gaithersburg, Md.).

Test [4] relates to IL-15Rα. The experiment in a line: Receptor affinities for IL-15Rα by Surface Plasmon Resonance (Example 10). In kind it is binding. The conditions noted are these: SPR. Here is the method:
The affinities of IL-15 and rIL-15 conjugates were measured using Surface Plasmon Resonance (“SPR”). Briefly, the surface of a Biacore CMS sensor chip was activated using a 1:1 mixture of NHS:EDC to generate active NHS esters. Goat anti-human Fc antibody was covalently attached to the surface by injecting it for five minutes in 10 mM sodium acetate (pH 4). There were approximately 8000 RU of antibodies bound to the surface. Any remaining NHS ester was then quenched with ethanolamine
At the initiation of each injection cycle, IL-15-Rα-Fc was captured on a sensor chip channel by a five minute injection step in PBSP. Typically, 150-200 RU of receptors were bound on the surface.
rIL-15 conjugates were diluted to 10 μM in PBS (containing 0.05% Tween 20 and 0.1 mg/ml BSA). A series of 3-fold dilutions were made and injected onto a sensor chip which was coated with IL-15Rα. The affinities were measured by determining the ka and kd rates separately, and the ratio between kd and ka was used to calculate the Kd values.

In test [5] the test system is STAT5 phosphorylation in CTLL-2 cells. Kind of test: Measurement of IL-15 activity of rIL-15 conjugates based on STAT5 phosphorylation in CTLL-2 cells (Example 8). The class given is cell-based. The conditions noted are these: 10 minute treatment. The procedure:
One day prior to the assay, CTLL-2 cells were split into fresh growth medium [RPMI 1640 supplemented with 10% FBS, 10% T-cell culture supplement (catalog #354115, Corning, Inc., Tewksbury, Mass.), 2 mM L-glutamate, and 1 mM sodium pyruvate]. On the day of assay, cells were pre-incubated in assay medium (RPMI 1640 supplemented with 1% FBS, 2 mM L-glutamate, and 1 mM sodium pyruvate) for at least four hours, and then plated in assay medium in a 96-well plate at 50,000 cells/well. Dilutions of the test article were prepared in an appropriate buffer immediately prior to assay. Stimulation of CTLL-2 cells was initiated by the transfer of 25× test article solutions to triplicate wells containing CTLL-2 cells. Plates were incubated at 37° C., 5% CO2 for 10 minutes, and the reaction was stopped by cell lysis. Detection of phospho-STAT5 and total STAT5 protein levels in cell lysates was performed using the MSD Phospho (Tyr694)/Total STATa,b Whole Cell Lysate Kit (catalog #K15163D, Meso Scale Diagnostics, LLC, Gaithersburg, Md.). […] Conjugates prepared in accordance with Examples 2, 3 and 5 were tested, with the results following a 10 minute treatment provided in Table 4.

In test [6] the test system is B16F10 melanoma tumor. Kind of test: Antitumor activity of rIL-15 conjugates in B16F10 melanoma tumor (Example 9). In kind it is in vivo, C57BL/6 mice. The following applies: conjugates 0.6 mg/kg i.v. once, IL-15 0.3 mg/kg i.p. every other day x6. The procedure: To test and compare the efficacy of rIL-15 conjugates in an in vivo model, syngenic tumors were induced in 6-8 week old female C57BL/6 mice by subcutaneously injecting, into post ventral abdominal region, mouse metastatic B16F10 melanoma cells at a density of 1×10^6 cells mL-1 in 100 μL volume of non-serum containing cell culture medium. The mice developed tumors of approximately 100 mm^3 by the end of 6-8 days. The mice were divided into six groups, each group consisting of 10 animals.
Groups A through D correspond to rIL-15 conjugates that were administered at 0.6 mg/kg body weight by intravenous injection to the mice only once while Group E represents unconjugated IL-15 administered every other day via intraperitoneal injection. Group F represents a vehicle control, wherein phosphate buffered saline was administered by intravenous injection.
Following dose administration, the mice were measured for changes in body weight and for the growth of subcutaneous metastatic melanoma tumors by digital calipers three times a week. Daily clinical signs were also monitored. The study end point was reached when the mean volume of the tumors reach 1500 mm^3 (i.e., a mean tumor volume of 1500 mm^3).

Where [7] appears, read: IL-15-Rα-Fc captured on sensor chip.
[8] abbreviates: days from the day of implantation.

“Fraction containing di- and tri-PEG-rIL-15 from Example 2 ([mPEG2-ru-20K]-[rIL-15] conjugates) (from UniProt P40933 49-162) (ligand)”: in test [1], the koff (usually the rate constant with which the complex falls apart) was 0.00049 s⁻¹ and the association rate constant (kon) (commonly the second-order rate constant of association) is 2.6e+06 M⁻¹ s⁻¹. Further, the Kd (in general, the equilibrium constant for the complex coming apart) in test [2] was found to be 0.183 nM.
For “Fraction containing di- and tri-PEG-rIL-15 from Example 5 ([mPEG2-ru-40K]-[rIL-15] conjugates) (from UniProt P40933 49-162) (ligand)”, in test [1], the koff was found to be 0.00088 s⁻¹ and the kon came out at 460000 M⁻¹ s⁻¹. In addition, the Kd in test [2] stood at 1.9 nM.
“Fraction containing mono-PEG-rIL-15 from Example 2 ([mPEG2-ru-20K]-[rIL-15] conjugates) (from UniProt P40933 49-162) (ligand)”: the dissociation constant Kd in test [2] was 0.043 nM.
In test [1], “Fraction containing mono-PEG-rIL-15 from Example 5 ([mPEG2-ru-40K]-[rIL-15] conjugates) (from UniProt P40933 49-162) (ligand)” registered a koff of 0.00047 s⁻¹ and a kon of 130000 M⁻¹ s⁻¹. Also, in test [2], the Kd was found to be 3.56 nM.
For “Fraction containing tri-PEG-rIL-15 from Example 5 ([mPEG2-ru-40K]-[rIL-15] conjugates) (from UniProt P40933 49-162) (ligand)” the same measures were 0.0039 s⁻¹, 420000 M⁻¹ s⁻¹ and 9.4 nM.
For the substance “IL-15: recombinant human IL-15 obtained from PeproTech (catalog #200-15); unconjugated control”, in test [3] (at 5 minutes, average over two runs), the “average pSTAT5 EC50” value came to 0.2071 ng/mL. Moreover, in test [3] (at 10 minutes), the “pSTAT5 EC50” value was found to be 0.08187 ng/mL. In test [4] (setting [7]), this substance gave a ka of 7.5e+06 M⁻¹ s⁻¹ and a kd of 0.00028 s⁻¹. For the same substance, the Kd in test [4] (read-out: affinity (Kd)) amounted to 0.0038 nM. The “EC50 (ng/mL) Ave ± SD” value in test [5] worked out at 0.063 ± 0.028 ng/mL. In test [6], the “Tumor Volume Doubling Time (500 mm^3)” value stood at 2.9 days and the “Tumor Volume Doubling Time (1000 mm^3)” value is 5.6 days. For the same substance, in test [6] (setting [8]), the “Time to reach 250 mm^3” value was 10.6 days, the “Time to reach 500 mm^3” value is 13.5 days and the “Time to reach 1000 mm^3” value was found to be 19.1 days. In test [6] (versus vehicle control Group F), the “Tumor growth delay for 250 mm^3” value is 0.6 days, the “Tumor growth delay for 500 mm^3” value was found to be 0.9 days and the “Tumor growth delay for 1000 mm^3” value came to 4 days.
“recombinant IL-15 (unconjugated) (from UniProt P40933 49-162) (ligand)” yielded a Kd in test [2] of 0.0038 nM.
